Source: publication PMC7260724, “ABAS1 from soybean is a 1R-subtype MYB transcriptional repressor that enhances ABA sensitivity”

B1: Glyma.01G060300 native probe (dsDNA)
DNA 1: TGAAAAATCGTGTCAGTGTCGCCACGTG
DNA 2: CACGTGGCGACACTGACACGATTTTTCA
B2: Glyma.01G060300 native probe, 6-FAM (dsDNA)
DNA 1: TGAAAAATCGTGTCAGTGTCGCCACGTG
DNA 2: CACGTGGCGACACTGACACGATTTTTCA

Assays:
GST-GmABAS1 [1] = biological target: T1, GST-GmABAS1 (Glycine max/soja (soybean; the cloned …, UniProt A0A3Q9B5G2 1-289); assay: EMSA; 150 mM KCl, 10 mM Tris pH 7.4, 0.1 mM EDTA, 0.1 mM DTT, EDTA-free protease inhibitor; room temperature 20 min; 6% (non-competitive) or 10% (competitive) acrylamide gel in TBE; settings: protein: recombinant; tags: N-terminal GST (pGEX-4T-1); label: none (SYBR Green stain); blunt
T1 sequence: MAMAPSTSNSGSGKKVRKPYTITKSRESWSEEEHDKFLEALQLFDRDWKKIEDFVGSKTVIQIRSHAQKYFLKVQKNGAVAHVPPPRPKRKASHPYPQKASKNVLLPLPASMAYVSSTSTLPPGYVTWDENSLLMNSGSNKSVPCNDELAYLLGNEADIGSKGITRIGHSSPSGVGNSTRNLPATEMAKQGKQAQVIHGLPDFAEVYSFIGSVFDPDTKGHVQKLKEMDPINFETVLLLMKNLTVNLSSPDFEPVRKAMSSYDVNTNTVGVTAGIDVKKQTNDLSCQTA

GST-GmABAS1 [2] = biological target: T1, GST-GmABAS1; assay: EMSA; 72 pmol protein, 10 pmol probe; 150 mM KCl, 10 mM Tris pH 7.4, 0.1 mM EDTA, 0.1 mM DTT, EDTA-free protease inhibitor; room temperature 20 min; 6% (non-competitive) or 10% (competitive) acrylamide gel in TBE; settings: protein: recombinant; tags: N-terminal GST (pGEX-4T-1); blunt

Binder | binding result (GST-GmABAS1 [1]) | binding result (GST-GmABAS1 [2])
B1 | binds | 
B2 |  | binds
